Laboratory results from patent US8394641B2, “Method of hydrolyzing an enzymatic substrate” (Advanced Liquid Logic Inc., priority 2009, dated 2013).
Read-outs that look alike come from different tables or passages of the source.

Key:
acid β-D-glucosidase = molecular target: T1, acid β-D-glucosidase (Homo sapiens, UniProt P04062); experiment: Droplet-based enzymatic assay for acid β-D-glucosidase (Gaucher), comparison of substrates; format: biochemical; settings: droplet actuator, Gaucher's disease testing
T1 sequence (P04062 40-536): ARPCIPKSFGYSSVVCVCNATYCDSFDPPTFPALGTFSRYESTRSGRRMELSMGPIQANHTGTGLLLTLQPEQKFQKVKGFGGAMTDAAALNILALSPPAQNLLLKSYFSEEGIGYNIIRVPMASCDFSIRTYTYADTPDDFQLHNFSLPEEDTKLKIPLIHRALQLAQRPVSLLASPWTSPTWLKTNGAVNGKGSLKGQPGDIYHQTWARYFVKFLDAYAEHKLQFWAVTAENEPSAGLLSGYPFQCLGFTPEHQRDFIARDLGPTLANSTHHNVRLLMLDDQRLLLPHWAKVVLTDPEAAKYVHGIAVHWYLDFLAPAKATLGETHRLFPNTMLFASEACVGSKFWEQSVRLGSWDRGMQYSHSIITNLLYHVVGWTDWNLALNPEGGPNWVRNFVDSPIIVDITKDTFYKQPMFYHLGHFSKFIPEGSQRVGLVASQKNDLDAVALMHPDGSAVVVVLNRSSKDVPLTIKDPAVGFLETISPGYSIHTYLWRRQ
Description: The invention provides assay methods for detection of Gaucher and Niemann-Pick diseases on a droplet actuator. Gaucher's disease and Niemann-Pick's disease are caused by deficient activity of the lysosomal enzymes acid β-D-glucosidase and acid sphingomyelinase, respectively. In one embodiment, the invention provides methods for a droplet-based enzymatic assay for acid β-D-glucosidase activity. For example, a multifluoroethylumbelliferyl-β-D-glucoside, such as a 4-pentafluoroethylumbelliferyl-β-D-glucoside, may be used as a substrate fluid in a droplet-based enzymatic assay for acid β-D-glucosidase enzyme activity. The increased number of fluorines makes the substrate fluid more labile to hydrolysis. The excitation/emission wavelengths for 4-pentafluoroethylumbelliferyl-β-D-glucoside are 385/495 nm.

[1] = molecular target: iduronate-2-sulfate sulphatase (IDS) (Homo sapiens, UniProt P22304); settings: cited from earlier work
[2] = Recombinant iduronidase standard curve in the presence of BSA on a droplet actuator; format: biochemical; settings: after stop buffer, room temperature
Method: Serial dilutions of recombinant iduronidase were prepared in 0.05 M Na-Acetate/0.05 M Acetic acid buffer, pH 5.0 from a stock of 0.5 mg/mL recombinant iduronidase containing 1 mg/mL molecular biology grade bovine serum albumin (BSA). A substrate fluid was prepared in 0.05 M Na Acetate, pH 5.0 containing 1 mM 4-methylumbelliferyl-α-L-idopyranosiduronic acid (4-MUI) and 100 μM D-saccharic acid 1,4-lactone.
The digital microfluidic protocol for the iduronidase standard curve included the following steps: • 1. Mix one 1× droplet of iduronidase and one 1× droplet of substrate fluid to yield a 2× reaction droplet; • 2. Split the 2× reaction droplet into two 1× reaction droplets; • 3. Dispense 11 droplets of stop buffer (sodium carbonate pH 10.1, 0.01% Tween® 20) and combine them with the first set of 1× reaction droplets; • 4. Detect end point fluorescence at 365 nm (t=0); • 5. Incubate the second set of 1× reaction droplets for 1 h at room temperature; • 6. After 1 h of incubation, dispense 11 droplets of stop buffer and combine with the reaction droplets; and • 7. Detect end point fluorescence at 365 nm (t=1 h).

[3] = Modified Hunter's assay (IDS) on a droplet actuator, recombinant iduronidase as second enzyme; format: biochemical, human
Method: Reagent solutions were prepared on-bench, and the experiment was performed on a droplet actuator using a digital microfluidic protocol. Different dilutions (1/10×, 1/4×, 1/3×, 1/2× and 1×) of plasma samples from normal (n=1) and affected (n=1) subjects were prepared using molecular grade water. A blank sample was prepared using 1 μg/mL of recombinant iduronidase in 0.05 M Na-Acetate/0.05 M Acetic acid buffer pH 5.0. A working stock of 10 μg/mL recombinant iduronidase in 0.05 M Na-Acetate/0.05 M Acetic acid buffer pH 5.0 was prepared from a stock of 0.5 mg/mL iduronidase (supplied in 0.05 M Na-Acetate with 150 mM NaCl, 0.02% Brij-35 (w/v) pH 3.5). A working stock of 1.25 mM MU-αIdoA-S substrate fluid was prepared in 0.1 M Na-Acetate, 0.1M Acetic Acid buffer pH 5.0 containing 10 mM Pb-Acetate. A substrate fluid was prepared by mixing 1 μL of 10 μg/mL recombinant iduronidase and 9 μL of 1.25 mM MU-αIdoA-S.
In one example, the digital microfluidic protocol for testing plasma sample dilutions included the following steps: • 1. […] Detect fluorescence at 364 nm (t=0 h); • 7. […] Detect fluorescence at 364 nm (t=8 h).
Eight different normal plasma samples were analyzed using two concentrations of recombinant iduronidase (i.e., 1 μg/mL and 10 μg/mL) in the modified Hunter's assay. […]

[4] = stock solution; cited from earlier work

Sequence of iduronate-2-sulfate sulphatase (IDS) (P22304 34-550): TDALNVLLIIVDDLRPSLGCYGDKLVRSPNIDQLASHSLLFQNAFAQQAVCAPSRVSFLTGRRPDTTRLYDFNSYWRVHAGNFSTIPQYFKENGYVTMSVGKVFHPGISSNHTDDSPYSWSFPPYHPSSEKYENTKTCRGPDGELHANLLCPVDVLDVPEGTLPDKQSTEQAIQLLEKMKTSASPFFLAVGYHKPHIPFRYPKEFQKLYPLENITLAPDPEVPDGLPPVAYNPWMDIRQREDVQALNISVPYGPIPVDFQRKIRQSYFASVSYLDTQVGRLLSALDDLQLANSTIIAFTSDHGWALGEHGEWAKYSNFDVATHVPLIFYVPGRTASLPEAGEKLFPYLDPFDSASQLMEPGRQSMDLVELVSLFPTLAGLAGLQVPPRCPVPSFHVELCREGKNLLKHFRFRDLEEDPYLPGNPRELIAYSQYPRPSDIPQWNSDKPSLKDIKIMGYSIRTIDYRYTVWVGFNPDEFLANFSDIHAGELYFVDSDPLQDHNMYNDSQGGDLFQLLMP

Q: With `O=c1cc(C(F)(F)C(F)(F)F)c2ccc(O[C@@H]3O[C@H](CO)[C@@H](O)[C@H](O)[C@H]3O)cc2o1` [4-pentafluoroethylumbelliferyl-β-D-glucoside] as the molecule, how does the “enzymatic activity compared with the 4-methylumbelliferyl-β-D-glucoside substrate fluid” value (acid β-D-glucosidase) read?
A: as much as eight-fold greater

Q: Which results are given for `Cl` [chloride]?
A: IDS activity inhibited ([1]; 30 mM chloride): 50%; IDS activity inhibited ([1]; 250 mM chloride): completely inhibited

B1: recombinant iduronidase: Recombinant α-L-Iduronidase from R&D Systems, second enzyme of the Hunter's assay (protein, UniProt P35475 28-653, looked up)
Alpha-L-iduronidase: APHLVHVDAARALWPLRRFWRSTGFCPPLPHSQADQYVLSWDQQLNLAYVGAVPHRGIKQVRTHWLLELVTTRGSTGRGLSYNFTHLDGYLDLLRENQLLPGFELMGSASGHFTDFEDKQQVFEWKDLVSSLARRYIGRYGLAHVSKWNFETWNEPDHHDFDNVSMTMQGFLNYYDACSEGLRAASPALRLGGPGDSFHTPPRSPLSWGLLRHCHDGTNFFTGEAGVRLDYISLHRKGARSSISILEQEKVVAQQIRQLFPKFADTPIYNDEADPLVGWSLPQPWRADVTYAAMVVKVIAQHQNLLLANTTSAFPYALLSNDNAFLSYHPHPFAQRTLTARFQVNNTRPPHVQLLRKPVLTAMGLLALLDEEQLWAEVSQAGTVLDSNHTVGVLASAHRPQGPADAWRAAVLIYASDDTRAHPNRSVAVTLRLRGVPPGPGLVYVTRYLDNGLCSPDGEWRRLGRPVFPTAEQFRRMRAAEDPVAAAPRPLPAGGRLTLRPALRLPSLLLVHVCARPEKPPGQVTRLRALPLTQGQLVLVWSDEHVGSKCLWTYEIQFSQDGKAYTPVSRKPSTFNLFVFSPDTGAVSGSYRVRALDYWARPGPFSDPVPYLEVPVPRGPPSPGNP
Q: For B1, which “Relative fluorescence at t = 1 hrs incubation (Rfu)” value (shortened to “Relative fluorescence”) ([2]; Idu 0.001 μg/mL) is on record?
A: 34.6948 Rfu

Q: And the “Relative fluorescence” value ([2]; Idu 0.01 μg/mL)?
A: 179.1927 Rfu

Q: What about the “Relative fluorescence” value ([2]; Idu 0.1 μg/mL) of the same molecule?
A: 999.3997 Rfu

Q: And the “Relative fluorescence” value ([2]; Idu 1 μg/mL)?
A: 7427.665 Rfu

Q: What about the “concentration dependence of Hunter's assay activity” value ([3]; 1 μg/mL vs 10 μg/mL, eight normal plasma samples) of the same molecule?
A: higher activity at 10 μg/mL

Q: What about the “liberation of 4-MU from 4-methylumbelliferyl-α-L-iduronic acid in the IDS assay” value ([3]; 1 μg/ml, data not shown) of the same molecule?
A: sufficient

Q: And the “specific activity of stock enzyme” value [4]?
A: > 7.5 nmol/min/µg
